The values that follow come from IntAct's records for PubMed 15234987.

This assay deals with fog1_mouse Zfpm1 (UniProt O35615).
fog1_mouse Zfpm1, sequence (O35615 whole entry): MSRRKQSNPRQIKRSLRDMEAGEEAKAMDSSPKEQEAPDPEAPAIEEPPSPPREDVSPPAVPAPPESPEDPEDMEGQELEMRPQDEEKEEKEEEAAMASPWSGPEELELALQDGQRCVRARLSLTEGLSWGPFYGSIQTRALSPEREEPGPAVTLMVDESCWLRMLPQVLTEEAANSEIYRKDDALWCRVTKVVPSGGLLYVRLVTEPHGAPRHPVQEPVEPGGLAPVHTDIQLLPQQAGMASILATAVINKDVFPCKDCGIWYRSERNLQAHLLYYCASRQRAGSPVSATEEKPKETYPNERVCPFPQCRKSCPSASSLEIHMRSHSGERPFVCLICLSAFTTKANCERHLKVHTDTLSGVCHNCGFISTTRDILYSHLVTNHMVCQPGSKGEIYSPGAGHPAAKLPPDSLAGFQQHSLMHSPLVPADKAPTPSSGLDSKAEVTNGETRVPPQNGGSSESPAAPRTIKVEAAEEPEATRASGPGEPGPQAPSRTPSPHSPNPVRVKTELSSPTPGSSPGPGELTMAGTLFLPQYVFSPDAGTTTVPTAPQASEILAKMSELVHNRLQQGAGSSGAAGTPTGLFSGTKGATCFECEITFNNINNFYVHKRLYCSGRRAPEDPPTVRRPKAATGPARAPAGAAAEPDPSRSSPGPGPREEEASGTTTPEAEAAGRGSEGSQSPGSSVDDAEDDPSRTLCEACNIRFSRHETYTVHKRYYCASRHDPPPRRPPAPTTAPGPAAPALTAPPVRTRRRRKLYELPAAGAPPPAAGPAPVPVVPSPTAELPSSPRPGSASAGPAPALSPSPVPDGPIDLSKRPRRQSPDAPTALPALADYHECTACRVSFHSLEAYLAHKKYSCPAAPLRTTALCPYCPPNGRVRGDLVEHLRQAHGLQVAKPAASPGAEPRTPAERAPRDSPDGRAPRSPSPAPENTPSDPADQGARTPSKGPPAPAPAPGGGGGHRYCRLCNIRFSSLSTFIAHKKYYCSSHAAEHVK

Transforming acidic coiled-coil-containing protein 3 (Mus musculus), Q9JJ11 I625A;S626A, sequence (Q9JJ11 whole entry I625A/S626A): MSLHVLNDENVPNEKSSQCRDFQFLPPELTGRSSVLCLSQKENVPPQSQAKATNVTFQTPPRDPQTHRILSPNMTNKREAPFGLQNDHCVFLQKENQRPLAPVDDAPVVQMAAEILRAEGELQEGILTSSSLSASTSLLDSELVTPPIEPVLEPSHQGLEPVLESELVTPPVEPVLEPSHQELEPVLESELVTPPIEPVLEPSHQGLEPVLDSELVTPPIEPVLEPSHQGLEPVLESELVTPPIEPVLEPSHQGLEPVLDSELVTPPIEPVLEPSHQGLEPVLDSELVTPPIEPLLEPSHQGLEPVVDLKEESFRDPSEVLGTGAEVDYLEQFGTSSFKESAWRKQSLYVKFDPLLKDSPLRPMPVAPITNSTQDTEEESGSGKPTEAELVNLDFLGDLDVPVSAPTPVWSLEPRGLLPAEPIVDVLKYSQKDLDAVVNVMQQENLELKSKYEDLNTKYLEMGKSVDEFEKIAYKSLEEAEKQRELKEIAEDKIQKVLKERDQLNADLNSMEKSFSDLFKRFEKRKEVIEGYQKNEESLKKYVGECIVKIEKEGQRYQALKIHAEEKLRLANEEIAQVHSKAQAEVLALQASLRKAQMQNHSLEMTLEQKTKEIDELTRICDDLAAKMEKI
Transforming acidic coiled-coil-containing protein 3 (Mus musculus), Q9JJ11 D622A;D623A, sequence (Q9JJ11 whole entry D622A/D623A): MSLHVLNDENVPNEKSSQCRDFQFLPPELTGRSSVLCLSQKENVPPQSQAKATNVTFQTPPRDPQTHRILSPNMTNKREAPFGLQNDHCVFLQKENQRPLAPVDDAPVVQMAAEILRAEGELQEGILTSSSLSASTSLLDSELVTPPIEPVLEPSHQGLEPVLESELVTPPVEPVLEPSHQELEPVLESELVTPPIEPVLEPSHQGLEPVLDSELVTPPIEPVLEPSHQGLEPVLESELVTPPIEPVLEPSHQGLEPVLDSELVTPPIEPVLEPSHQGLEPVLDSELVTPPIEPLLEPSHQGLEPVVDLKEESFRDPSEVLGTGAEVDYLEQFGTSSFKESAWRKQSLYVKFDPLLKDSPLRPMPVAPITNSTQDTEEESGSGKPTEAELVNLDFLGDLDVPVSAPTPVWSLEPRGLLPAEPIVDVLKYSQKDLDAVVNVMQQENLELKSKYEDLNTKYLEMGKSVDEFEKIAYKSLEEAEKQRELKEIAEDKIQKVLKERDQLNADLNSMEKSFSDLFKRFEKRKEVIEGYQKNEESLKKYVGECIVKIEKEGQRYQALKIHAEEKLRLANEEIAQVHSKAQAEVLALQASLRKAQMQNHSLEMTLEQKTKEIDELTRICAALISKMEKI
Transforming acidic coiled-coil-containing protein 3 (Mus musculus), Q9JJ11 D615A;E616A, sequence (Q9JJ11 whole entry D615A/E616A): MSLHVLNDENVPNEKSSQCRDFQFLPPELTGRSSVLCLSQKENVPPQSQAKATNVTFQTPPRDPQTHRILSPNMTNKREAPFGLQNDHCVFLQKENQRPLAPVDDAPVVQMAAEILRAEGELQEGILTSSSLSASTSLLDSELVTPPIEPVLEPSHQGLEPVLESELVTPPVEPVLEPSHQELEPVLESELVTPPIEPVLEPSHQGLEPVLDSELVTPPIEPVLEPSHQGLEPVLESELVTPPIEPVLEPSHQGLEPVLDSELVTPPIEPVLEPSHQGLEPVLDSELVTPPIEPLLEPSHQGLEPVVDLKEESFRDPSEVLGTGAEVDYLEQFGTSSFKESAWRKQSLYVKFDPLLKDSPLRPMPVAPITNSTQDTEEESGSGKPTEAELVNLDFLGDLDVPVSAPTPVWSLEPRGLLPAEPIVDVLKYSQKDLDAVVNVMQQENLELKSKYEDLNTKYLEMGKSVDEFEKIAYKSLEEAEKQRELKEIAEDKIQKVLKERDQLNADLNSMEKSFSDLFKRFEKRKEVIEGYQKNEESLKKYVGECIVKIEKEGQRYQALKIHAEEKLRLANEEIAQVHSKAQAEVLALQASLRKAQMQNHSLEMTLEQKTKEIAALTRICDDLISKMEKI
Transforming acidic coiled-coil-containing protein 3 (Mus musculus), Q9JJ11 E629A;K630A, sequence (Q9JJ11 whole entry E629A/K630A): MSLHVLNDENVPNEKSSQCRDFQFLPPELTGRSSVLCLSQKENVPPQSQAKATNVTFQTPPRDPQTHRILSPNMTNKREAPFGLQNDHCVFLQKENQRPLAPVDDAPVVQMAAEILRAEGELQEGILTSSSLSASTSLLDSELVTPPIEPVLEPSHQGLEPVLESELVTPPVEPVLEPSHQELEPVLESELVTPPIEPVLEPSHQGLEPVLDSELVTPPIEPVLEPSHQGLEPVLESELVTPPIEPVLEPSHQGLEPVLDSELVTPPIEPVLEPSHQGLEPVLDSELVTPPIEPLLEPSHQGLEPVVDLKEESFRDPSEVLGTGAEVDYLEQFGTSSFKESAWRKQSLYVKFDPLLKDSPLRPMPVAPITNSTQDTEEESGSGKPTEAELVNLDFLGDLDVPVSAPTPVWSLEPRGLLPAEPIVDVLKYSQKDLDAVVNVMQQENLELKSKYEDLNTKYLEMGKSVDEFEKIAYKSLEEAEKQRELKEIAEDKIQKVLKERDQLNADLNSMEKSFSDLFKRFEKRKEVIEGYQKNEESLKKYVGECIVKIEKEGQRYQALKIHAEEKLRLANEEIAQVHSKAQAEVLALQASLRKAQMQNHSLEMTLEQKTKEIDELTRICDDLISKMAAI
Transforming acidic coiled-coil-containing protein 3 (Mus musculus), Q9JJ11 R619A;I620A, sequence (Q9JJ11 whole entry R619A/I620A): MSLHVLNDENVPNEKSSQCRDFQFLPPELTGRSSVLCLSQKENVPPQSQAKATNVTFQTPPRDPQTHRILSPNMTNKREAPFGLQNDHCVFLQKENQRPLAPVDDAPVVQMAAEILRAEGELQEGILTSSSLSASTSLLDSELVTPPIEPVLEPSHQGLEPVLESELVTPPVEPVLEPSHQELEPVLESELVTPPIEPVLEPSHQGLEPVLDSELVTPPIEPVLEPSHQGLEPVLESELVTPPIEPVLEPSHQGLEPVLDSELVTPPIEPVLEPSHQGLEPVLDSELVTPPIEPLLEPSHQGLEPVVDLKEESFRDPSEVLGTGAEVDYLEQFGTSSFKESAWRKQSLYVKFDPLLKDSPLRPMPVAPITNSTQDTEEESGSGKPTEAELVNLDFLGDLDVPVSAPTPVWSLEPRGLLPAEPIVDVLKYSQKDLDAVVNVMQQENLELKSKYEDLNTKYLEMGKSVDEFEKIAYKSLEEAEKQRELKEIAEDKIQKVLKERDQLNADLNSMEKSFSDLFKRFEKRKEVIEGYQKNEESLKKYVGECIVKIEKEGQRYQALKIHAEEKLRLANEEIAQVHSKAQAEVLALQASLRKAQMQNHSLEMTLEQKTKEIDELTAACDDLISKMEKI

“Transforming acidic coiled-coil-containing protein 3 (Mus musculus), Q9JJ11 R619A;I620A”: the “effect of a mutation on the interaction” value was “decreasing interaction”. To “Transforming acidic coiled-coil-containing protein 3 (Mus musculus), Q9JJ11 D622A;D623A” belongs “decreasing interaction”. Consider “Transforming acidic coiled-coil-containing protein 3 (Mus musculus), Q9JJ11 I625A;S626A”, for which the “effect of a mutation on the interaction” value is “decreasing interaction”. With “Transforming acidic coiled-coil-containing protein 3 (Mus musculus), Q9JJ11 D615A;E616A” the entry was “decreasing interaction”. Consider “Transforming acidic coiled-coil-containing protein 3 (Mus musculus), Q9JJ11 E629A;K630A”, for which the “effect of a mutation on the interaction” value is recorded as “decreasing interaction”.
